From US8840891 (RSR, dated 2014)
Where two headings read alike, the source gives them in different places.

Key:
[1] = target: wild type human TSHR (thyrotropin receptor) expressed on CHO cells (human) (UniProt P16473); assay: cell-based or functional assay
[2] = target: TSHR with Glu61 mutated to Alanine expressed on CHO cells (human) (UniProt P16473); assay: cell-based or functional assay
[3] = target: TSHR with activating mutation S281I expressed on CHO cells (human) (UniProt P16473); assay: cell-based or functional assay
[4] = target: TSHR Lys183Ala expressed in CHO cells (human) (UniProt P16473); assay: cell-based or functional assay
[5] = target: wild type human TSHR (thyrotropin receptor) expressed on CHO cells (human) (UniProt P16473); assay: cell-based or functional assay; remark: listed apart in the source
[6] = target: TSHR with Asp203 mutated to Alanine expressed on CHO cells (human) (UniProt P16473); assay: cell-based or functional assay
[7] = target: human TSHR, wild type, expressed on CHO cells (human) (UniProt P16473); assay: cell-based or functional assay
[8] = target: TSHR coated onto tubes (TSHR coated tubes) (human) (UniProt P16473); assay: TSHR coated tubes

B1: 5C9 IgG (human monoclonal autoantibody to the TSHR) (antibody, from another filing, V domains shown)
VH: EVQLVESGGGLIQPGGSLRLSCAASGFTVSSNYMSWVRQAPGKGLEWVSVTYSGGSTSYADSVKGRFTISRDNSKNTLYLQMNSLRAEDTAVYYCARGGRYCSSISCYARSGCDYWGQGTLVTVSS
VL: AIQMTQSPSSLSASVGDRVTITCRASQSISNYLNWYQQKPGKAPKLLIYAASSLQSGVPSRFSGSGSGTDFTLTISSLQPEDFATYYCQQSYSSPSTTFGQGTKLEIK
[1]
  Cyclic AMP produced; 5C9 0.01 µg/mL + TSH (fmol/cell well): 13800
  Cyclic AMP produced; 5C9 0.1 µg/mL + TSH (fmol/cell well): 2890
  Cyclic AMP produced; 5C9 1.0 µg/mL + TSH (fmol/cell well): 536
  Cyclic AMP produced; 5C9 10 µg/mL + TSH (fmol/cell well): 254
  Cyclic AMP produced; 5C9 100 µg/mL + TSH (fmol/cell well): 202
  Cyclic AMP produced; 5C9 100 µg/mL only (fmol/cell well): 218
[2]
  Cyclic AMP produced; 5C9 0.01 µg/mL + TSH (fmol/cell well): 18000
  Cyclic AMP produced; 5C9 0.1 µg/mL + TSH (fmol/cell well): 2110
  Cyclic AMP produced; 5C9 1.0 µg/mL + TSH (fmol/cell well): 766
  Cyclic AMP produced; 5C9 10 µg/mL + TSH (fmol/cell well): 346
  Cyclic AMP produced; 5C9 100 µg/mL + TSH (fmol/cell well): 328
  Cyclic AMP produced; 5C9 100 µg/mL only (fmol/cell well): 254
  Mutated/wild type (%); 5C9 0.01 µg/mL + TSH: 131%
  Mutated/wild type (%); 5C9 0.1 µg/mL + TSH: 73%
  Mutated/wild type (%); 5C9 1.0 µg/mL + TSH: 143%
  Mutated/wild type (%); 5C9 10 µg/mL + TSH: 136%
  Mutated/wild type (%); 5C9 100 µg/mL + TSH: 162%
  Mutated/wild type (%); 5C9 100 µg/mL only: 117%
[3]
  Cyclic AMP concentration (basal) in the presence of 5C9 IgG (1 µg/mL) (fmol/cell well): 655
[4]
  % inhibition of TSH stimulation of cyclic AMP; 5C9 IgG 1 µg/mL: 28%
  % inhibition of TSH stimulation of cyclic AMP; 5C9 IgG 100 µg/mL: 43%
[5]
  Cyclic AMP produced; 5C9 0.01 µg/mL + TSH (fmol/cell well): 15500
  Cyclic AMP produced; 5C9 0.1 µg/mL + TSH (fmol/cell well): 4440
  Cyclic AMP produced; 5C9 1.0 µg/mL + TSH (fmol/cell well): 1350
  Cyclic AMP produced; 5C9 10 µg/mL + TSH (fmol/cell well): 807
  Cyclic AMP produced; 5C9 100 µg/mL + TSH (fmol/cell well): 367
  Cyclic AMP produced; 5C9 100 µg/mL only (fmol/cell well): 330
[6]
  Cyclic AMP produced; 5C9 0.01 µg/mL + TSH (fmol/cell well): 14700
  Cyclic AMP produced; 5C9 0.1 µg/mL + TSH (fmol/cell well): 13100
  Cyclic AMP produced; 5C9 1.0 µg/mL + TSH (fmol/cell well): 14700
  Cyclic AMP produced; 5C9 10 µg/mL + TSH (fmol/cell well): 12600
  Cyclic AMP produced; 5C9 100 µg/mL + TSH (fmol/cell well): 12700
  Cyclic AMP produced; 5C9 100 µg/mL only (fmol/cell well): 1370
  Mutated/wild type (%); 5C9 0.01 µg/mL + TSH: 95%
  Mutated/wild type (%); 5C9 0.1 µg/mL + TSH: 296%
  Mutated/wild type (%); 5C9 1.0 µg/mL + TSH: 1090%
  Mutated/wild type (%); 5C9 10 µg/mL + TSH: 1570%
  Mutated/wild type (%); 5C9 100 µg/mL + TSH: 3450%
  Mutated/wild type (%); 5C9 100 µg/mL only: 415%
[7]
  cyclic AMP; Exp 1; 5C9 0.01 µg/mL + M22 3 ng/mL: 48.1 pmol/mL
  cyclic AMP; Exp 1; 5C9 0.1 µg/mL + M22 3 ng/mL: 6 pmol/mL
  cyclic AMP; Exp 1; 5C9 1 µg/mL + M22 3 ng/mL: 0.93 pmol/mL
  cyclic AMP; Exp 1; 5C9 10 µg/mL + M22 3 ng/mL: 0.36 pmol/mL
  cyclic AMP; Exp 1; 5C9 100 µg/mL + M22 3 ng/mL: 0.35 pmol/mL
  cyclic AMP; Exp 1; 5C9 100 µg/mL only: 0.35 pmol/mL
  cyclic AMP; Exp 2; 5C9 0.001 µg/mL + M22 3 ng/mL: 63.3 pmol/mL
  cyclic AMP; Exp 2; 5C9 0.01 µg/mL + M22 3 ng/mL: 57.3 pmol/mL
  cyclic AMP; Exp 2; 5C9 0.1 µg/mL + M22 3 ng/mL: 4.17 pmol/mL
  cyclic AMP; Exp 2; 5C9 10 µg/mL + M22 3 ng/mL: 0.14 pmol/mL
  cyclic AMP; Exp 2; 5C9 100 µg/mL only: 0.69 pmol/mL
  cyclic AMP; Exp 2; 5C9 + M22 3 ng/mL: 2.54 pmol/mL
  cyclic AMP; Exp 3; 5C9 0.001 µg/mL + M22 0.3 ng/mL: 13.3 pmol/mL
  cyclic AMP; Exp 3; 5C9 0.01 µg/mL + M22 0.3 ng/mL: 13.1 pmol/mL
  cyclic AMP; Exp 3; 5C9 0.1 µg/mL + M22 0.3 ng/mL: 1.43 pmol/mL
  cyclic AMP; Exp 3; 5C9 1 µg/mL + M22 0.3 ng/mL: 0.02 pmol/mL
  cyclic AMP; Exp 3; 5C9 10 µg/mL + M22 0.3 ng/mL: 0.2 pmol/mL
  cyclic AMP; Exp 3; 5C9 100 µg/mL + M22 0.3 ng/mL: 0.05 pmol/mL
  cyclic AMP; Exp 3; 5C9 100 µg/mL only: 0.58 pmol/mL
  cyclic AMP; Exp 4; 5C9 0.001 µg/mL + M22 0.3 ng/mL: 33.1 pmol/mL
  cyclic AMP; Exp 4; 5C9 0.01 µg/mL + M22 0.3 ng/mL: 31.5 pmol/mL
  cyclic AMP; Exp 4; 5C9 0.1 µg/mL + M22 0.3 ng/mL: 6 pmol/mL
  cyclic AMP; Exp 4; 5C9 1 µg/mL + M22 0.3 ng/mL: 0.21 pmol/mL
  cyclic AMP; Exp 4; 5C9 10 µg/mL + M22 0.3 ng/mL: 0.4 pmol/mL
  cyclic AMP; Exp 4; 5C9 100 µg/mL + M22 0.3 ng/mL: 0.22 pmol/mL
  cyclic AMP; Exp 4; 5C9 100 µg/mL only: 0.12 pmol/mL
[8]
  average % binding of labelled tracer: 20%
